# Source: the DeepSol protein solubility set
# Assay: soluble on expression in E. coli; label from the status in PepcDB or PDB records
row,Sequence,soluble on expression in E. coli
1,MSLDRIKEYLQDKGKVTVNDLAQALGKDSSKDFRELIKTLSLMERKHQIRFEEDGSLTLEAKKKHEITLKGIFHAHKNGFGFVSLEGEEDDLFVGKNDVNYAIDGDTVEVVIKKVADRNKGTAAEAKIIDILEHSLTTVVGQIVLDQEKPKYAGYIRSKNQKISQPIYVKKSALKLEGTEVLKVFIDKYPSKKHDFFVASVLDVVGHSTDVGIDVLEVLESMDIVSEFPEAVVKEAESVPDAPSQKDMEGRLDLRDEITFTIDGADAKDLDDAVHIKALKNGNLELGVHIADVSYYVTEGSALDKEALNRATSVYVTDRVVPMLPERLSNGICSLNPQVDRLTQSAIMEIDKHGRVVNYTITQTVIKTSFRMTYSDVNDILAGDEEKRKEYHKIVSSIELMAKLHETLENMRVKRGALNFDTNEAKILVDKQGKPVDIVLRQRGIAERMIESFMLMANETVAEHFSKLDLPFIYRIHEEPKAEKVQKFIDYASSFGLRIYGTASEISQEALQDIMRAVEGEPYADVLSMMLLRSMQQARYSEHNHGHYGLAADYYTHFTSPIRRYPDLLVHRMIRDYGRSKEIAEHFEQVIPEIATQSSNRERRAIEAEREVEAMKKAEYMEEYVGEEYDAVVSSIVKFGLFVELPNTVEGLIHITNLPEFYHFNERDLTLRGEKSGITFRVGQQIRIRVERADKMTGEIDFSFVPSEFDVIEKGLKQSSRSGRGRGSNRRSDKKEDKRKSGRSNDKRKHSQKDKKKKGKKPFYKEVAKKGAKHGKGRGKGRRTKEGHHHHHH,not soluble
2,MIALFSVLIAFLTPQANAVISGELNCTTYNGTAFVYTPSATACSNAISDSSCAALYPASDPATGYPAPGNDVERPFACYTTATPTPAPVVPDMRSAALKNCARTCGLCCKTADFDCPNVQFPRLTCSTITNEQCRSSVWRTIIATDCPSACGFCNQGGCVDGVMDCANDLSICNSVGMQEFVNQYCQRTCNRCSSSTAATGTGGSCGGRYIADSSTACAAWKLNGFCTNTFYTAAQRRSYCATTCSLC,not soluble
3,MPLVSMKEMLIDAKENGYAVGQYNINNLEFTQAILEASQEENAPVILGVSEGAARYMSGFYTIVKMVEGLMHDLNITIPVAIHLDHGSSFEKCKEAIDAGFTSVMIDASHSPFEENVATTKKVVEYAHEKGVSVEAELGTVGGQEDDVVADGIIYADPKECQELVEKTGIDALAPALGSVHGPYKGEPKLGFKEMEEIGLSTGLPLVLHGGTGIPTKDIQKAIPFGTAKINVNTENQIASAKAVRDVLNNDKEVYDPRKYLGPAREAIKETVKGKIKEFGTSNRAK,not soluble
4,MDKRIENAMNELINTEIWSTGLYLSLQVYFEDERLPILSSWLNSQAQDNMNKVYQMMNRICHDGGCVVINEMKRDTHEWTTPLNALNELLEHEQYISRQVNTFLILCWNVSMSFHSFISGLYADRIYVSTAFMELLRILAKENERKLPYF,not soluble
5,MHIEEKTTQLQDQQQVSITIYNENLALVRDLRHVPLEKGINKLAWCDVSAQIRPETALLRTPEKTSSIRMVEQNFDFDLLTPEKLLEKYLGRSVNVIYVNPATGAETVEAAIVLSISGGVVLKFKDRIETGTPGRIAFPDVPGSLHDHPTLSLVLDGATPGKHELELSYLTSGLSWQADYVARLDANDGRLDLSGLVTLANHSGIAYPDAHLQLVSGEVNQVTPEPPQARKMMAMVADAAEYQAVREESLSEYHLYSLPVPTTLAENQSKQITLMSVTDIPVSQEFLLRGTNAYYFSRYSNLDDKLKPVVLIQFKNEGEGLGVPLPRGTIRVYQNDSRDNLQFLGEDHIDHTAKNEEVRVKLGKATDITAMRTQTDFQQLDTPSRRFTETATDITAMRTQTDFQQLDTPSRRFTETAHQIEIHNARQEAVTIRVQEPIPGDWMMISESQPHTKSSANLVEWLVKVPTNQKTILSYRVRIKHLEHHHHHH,not soluble
6,MERTGFLEYVLNYVKKGVELGGFPEDFYKILSRPRRVLIVNIPVRLDGGGFEVFEGYRVQHCDVLGPYKGGVRFHPEVTLADDVALAILMTLKNSLAGLPYGGAKGAVRVDPKKLSQRELEELSRGYARAIAPLIGDVVDIPAPDVGTNAQIMAWMVDEYSKIKGYNVPGVFTSKPPELWGNPVREYATGFGVAVATREMAKKLWGGIEGKTVAIQGMGNVGRWTAYWLEKMGAKVIAVSDINGVAYRKEGLNVELIQKNKGLTGPALVELFTTKDNAEFVKNPDAIFKLDVDIFVPAAIENVIRGDNAGLVKARLVVEGANGPTTPEAERILYERGVVVVPDILANAGGVIMSYLEWVENLQWYIWDEEETRKRLENIMVNNVERVYKRWQREKGWTMRDAAIVTALERIYNAMKIRGWI,soluble
7,MPRIEDRLINRTPRNFTIIGNSPNSMSRGKRPHTTPIEVHLLREGIIESQHWAEATVYDDRGRVLMLAGDSTSNAFIRSSLKPFQALAVTSTGTMERYGLTDKDLAIMCGSHQGTIEQARQVFNILWRADIEPQALQCPIPAGQESPLYHGCSGKHAGMLAVCQQQDWPLHSYLQQNSPIQKLILSKVADLLGMPGAELIAAHDDCGAPTYTMELGQIAHLYALLASGQQLGLERVARAMTYYPYFVAGEGCFDTELMQQMEGELVSKSGAEGVQCVGRVGEGLGLAIKVKDGSKRAKYAVAIHLLQQMGWIPPQVAETLSEKFVRLGKYKRLEVIGELAMLLEHHHHHH,not soluble
8,MRNICFVACMLFCLASASGKTVKNHPFVSIADSILDNVLNLYQTEDGLLTETYPVNPDQKITYLAGGAQQNGTLKASFLWPYSGMMSGCVAMYQATGDKKYKTILEKRILPGLEQYWDGERLPACYQSYPVKYGQHGRYYDDNIWIALDYCDYYRLTKKADYLKKAIALYEYIYSGWSDELGGGIFWCEQQKEAKHTCSNAPSTVLGVKLYRLTKDKKYLNKAKETYAWTRKHLCDPDDFLYWDNINLKGKVSKDKYAYNSGQMIQAGVLLYEETGDKDYLRDAQKTAAGTDAFFRSKADKKDPSVKVHKDMSWFNVILFRGFKALEKIDHNPTYVRAMAENALHAWRNYRDANGLLGRDWSGHNEEPYKWLLDNACLIELFAEIEKLEHHHHHH,not soluble
9,MSLTIKEIADKVNLSPTTVSNVIHGRKGKVSPDNYKKISRALEESKYVSNMGGRLLGRHGSKIIAVILNYERRSEMNVVSDPFYNQIVGFLEEEIRKKSYFMMLYTSGSVTESLRLATAWDIEGLIVLGSHPDDAKNFIKQQKRPVAFIDTYVDKESMTDDFINVGLQDFKGGYQITNYLIGLGHRRIGFFADGNQLLGVDQQRFAGFKKALSEADINLENPGFFGLDYRTNQRHIFLKKFSETKLKDYTALVFTSDFLAVDAINVFLDNGFKVPEDISITGFDHNIFSEQCRPKLTTIGQNVQKKAVLAVDFLTERIQSKQAIKKINLLLDAELIVQDSTAREGHHHHHH,soluble
10,MGSDKIHHHHHHMKAISNDKPQGVCATDFASVLGEENAVCLWENIEIGQQKRIQQAVTSGKPPTCIVYPRTQQQLAAVIAKAYSHNWRVLPCGSGSKLSWGGLAKGVDVVVGTERINQLIEHAVGDLTVTVEAGMKFSDLQALLAKSRQFLALDPTAPQSATIGGIVATGDTGSLRQRYGSVRDQLLGVTFVRADGEIAKAGGRVVKNVAGYDLMKLLTGSYGTLGFISQLTFRVYPLSEASGTVVLTGSAEAVSQAADILRGSALTPVQADLLSTKLVSSLGLGEGLGLIARFQSISESVKEQSNRVLEVGQKLGLDGAIFADADEASLWQRLQERIHSTATESVITCKIGVLPTAAVDILTQVGLGLIHISSGLGLLQLEDKNQVLKVREQLRSAGSDGTQANSGFLTILEAPMAVKEQVDVWGYNGNALPLMRRIKEQFDSKNILSPGRFVGGI,not soluble
11,GPGSMAAVPPQKAANIAQRLQPQCATVGPATLRMSAGKSLKIRENAMYSNMPPPTAFTTPCSATNAGPVMEVCVPFIVMTPIAMPRGTETEKIIVITTSSMTLMEASTSREPSAIPSNSWWNDNATSSVLMSLSLAIPTERPKNTLCEAKPNSIKIAAATRLALFR,not soluble
12,MSEPLDLNQLAQKIKQWGLELGFQQVGITDTDLSESEPKLQAWLDKQYHGEMDWMARHGMLRARPHELLPGTLRVISVRMNYLPANAAFASTLKNPKLGYVSRYALGRDYHKLLRNRLKKLGEMIQQHCVSLNFRPFVDSAPILERPLAEKAGLGWTGKHSLILNREAGSFFFLGELLVDIPLPVDQPVEEGCGKCVACMTICPTGAIVEPYTVDARRCISYLTIELEGALPEELRPLMGNRIYGCDDCQLICPWNRYSQLTTEDDFSPRKPLHAPELIELFAWSEEKFLKVTEGSAIRRIGHLRWLRNIAVALGNAPWDETILTALESRKGEHPLLDEHIAWAIAQQIERRNACIVEVQLPKKQRLVRVIEKGLPRDA,not soluble
13,MNGQNFNEMLHDEQVFAEFMVPNAHTTPNLWRIQQQNQENQIPQNFQHLDFQYFQYQNQKQEVVHGAHCMGTVGSSWNEQVAVKKPSSSQSRKGGKNKEEAREKNHQKNKALLEMLNQVDPAVIDAEIEEQKEKQRLRKNRGRYDPIGAHGAQQGTRGVQNEVQYHRNFQNNNNNNS,not soluble
14,MNLTIIEFESNVLRDNPLNDPYKRRVGIIYPKDYEGRPILIYLSGYLSSSLTQINYNPLGEDMVSKVERLSNEGKMKGSVIVLPDMFTKVGGNQYINSSAVGMYEDFLVKELIPFLKDKFKSDKIGIFGHSSGGYGALILGMKYPNTIKAIADHAGDAYFEYVYLPTFPRAIEQLRRFKTPEEWLENYWKKENKQHREDLNTLNVVGMSAFYSPNNEKIELPFDLETGEILEDVWKKWLEKDPVRMVDKYADNLKMLKFIFIDVGKKDEFNIQYGSRTLHKKLQKYGINHYYEEFNDGHLHTNYRYDISLSLLEKKLTSE,not soluble
15,MGSDKIHHHHHHMITHIRVASQQLEQPRFESPKELVSWMGAIQAQEYEMAKWAIGIRLRSSSLEKVNEALYKGDILRTHVMRPTWHFVAAEDIRWMLMLSSERIKAAVMSYAKGHFGKIEKTLFTRYLDQIGKILEGYKSLTKQEVTTELQKSGILPTIDHVNLFLTWGEVEGIVCSGIDKGKKTTYALLDERVPPTRELCREEALARLASRYFQSHSPAQLQDFVWWSGLTATECRLAINLIKTELITETFDSREYFIHQSWKGKNESKPVLRLLPAFDEYLISYKNRTDVLPLEHHPKAFNRFGTFYPVILYNGKIIGNWSRSIKKNTIQIEMDFFEKKPRIPVKLIQQAEAQIDAFYRGLSHRPALQCREK,not soluble
16,MSQFKNIIVTGGAGFIGSNFVHYVYNNHPDVHVTVLDKLTYAGNKANLEAILGDRVELVVGDIADAELVDKLAAKADAIVHYAAESHNDNSLNDPSPFIHTNFIGTYTLLEAARKYDIRFHHVSTDEVYGDLPLREDLPGHGEGPGEKFTAETNYNPSSPYSSTKAASDLIVKAWVRSFGVKATISNCSNNYGPYQHIEKFIPRQITNILAGIKPKLYGEGKNVRDWIHTNDHSTGVWAILTKGRMGETYLIGADGEKNNKEVLELILEKMGQPKDAYDHVTDRAGHDLRYAIDASKLRDELGWTPQFTDFSEGLEETIQWYTDNQDWWKAEKEAVEANYAKTQEVIK,soluble
17,MSLAADKVVVMLNWYVYGEHAPFYYGKAKGIYAAEGIDLEIQEGRGSAATTQAVAAKTADFGYVDVPTMMRAAIKGAPVVATGVLLQTSPMSAMGFVDKNIRKPEDIKGKTVAITPADSMTQIWPLFLKKTGLKESDFQTVAGDGQTKLNAVINGQADLLLGYVMDQSMKIKDATGKDVYPIKFADYGINMVSSGIIANSDYVKANADLVRRFMSATTKAVEAAEKEPKAAAQSILDANPKGGKIDTLTQGFELTIPLYRTAATKSKRPFQVTEQNMTETVNLLVEYGGLDAKAKDNPKAFYTNDYLPKSGEGHHHHHH,soluble
